Target: T1, GST-His-hnRNP L RRM2 (162-321) (human, UniProt P14866 162-321)
T1 sequence: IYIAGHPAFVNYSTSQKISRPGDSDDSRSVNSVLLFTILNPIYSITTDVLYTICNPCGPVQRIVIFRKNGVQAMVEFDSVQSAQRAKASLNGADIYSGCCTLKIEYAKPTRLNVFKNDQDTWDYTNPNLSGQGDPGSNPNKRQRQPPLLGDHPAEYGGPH
Assay: pull-down

B1: FLAG-SETD2 SHI (2114-2263) (domain or fragment)
chain: NKLSTEERRKLFEQEVAQREAQKQQQQMQNLGMTSPLPYDSLGYNAPHHPFAGYPPGYPMQAYVDPSNPNAGKVLLPTPSMDPVCSPAPYDHAQPLVGHSTEPLSAPPPVPVVPHVAAPVEVSSSQYVAQSDGVVHQDSSVAVLPVPAPG
B1: binds.
